Test results taken from publication PMC2798062.

What was measured:
[1] = system: C[C@H]1C=C2C=C[C@H](C)[C@H](CC[C@@H](O)C[C@@H](O)CC(=O)O)[C@H]2[C@@H](O)C1; assay: purified protein; assay type: biochemical, Aspergillus terreus; conditions: 2 mM DMB-SMMP fixed, 10% DMSO, 25°C
CCC(C)(C)C(=O)SCCC(=O)OC = assay: purified protein; assay type: biochemical, Aspergillus terreus; conditions: 2 mM MJA fixed; 10% DMSO; table header prints mM^-1, text b12 prints mM; 25.0 °C

LovD G0 (Aspergillus terreus; A86V/C40A/C60N)
Km ([1]; mutant G1): 0.74 ± 0.16 mM
kcat ([1]; mutant G1): 0.79 ± 0.03 min⁻¹

LovD G0 (Aspergillus terreus; A190T/A86V/C40A/C60N/D12G/G275S)
Km ([1]; mutant G3): 0.77 ± 0.11 mM
kcat ([1]; mutant G3): 1.86 ± 0.09 min⁻¹

LovD G0 (Aspergillus terreus; A190T/A86V/C40A/C60N/D12G/G275S/H161Y/K26E/L361M/V334D)
Km ([1]; mutant G6): 0.70 ± 0.07 mM
kcat ([1]; mutant G6): 3.30 ± 0.06 min⁻¹

LovD G0 (Aspergillus terreus; A190T/A86V/C40A/C60N/D12G/G275S/H161Y/K26E/V334F)
Km ([1]; mutant G7): 0.70 ± 0.04 mM
kcat ([1]; mutant G7): 4.80 ± 0.06 min⁻¹

LovD G0 (Aspergillus terreus; C40A/C60N)
Km [1]: 0.77 ± 0.17 mM
kcat [1]: 0.66 ± 0.03 min⁻¹
Km (CCC(C)(C)C(=O)SCCC(=O)OC): 0.67 ± 0.12 mM
kcat (CCC(C)(C)C(=O)SCCC(=O)OC): 0.66 ± 0.03 min⁻¹

LovD G0 (Aspergillus terreus; A190T/A86V/C40A/C60N/D12G/G275S/H161Y/K26E)
Km ([1]; mutant G5): 0.74 ± 0.03 mM
kcat ([1]; mutant G5): 2.61 ± 0.03 min⁻¹
